B1: TPR t1 (parent)
chain: GACCAAUCUGCCCUCAGAGCUCGAGAACAUCUUCGGAUGCAGAGGAGGCAGGCUUCGGUGGCGCGAUAGCGCCAACGUCCUCAACCUCCAAUGCAUCCCACCACAUGAUGAUGCCUGAAGAGCCUUGGUUUUUUG

Variants of: B1
Experiment: polymerase ribozyme fitness, log enrichment relative to wild type (log ratio); higher = more active; in vitro selection for triplet polymerase activity
Outline: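 Genotype fitness is the logarithm of its enrichment divided by wild-type enrichment, using inverse-variance-weighted averages of replicates. That logarithm is base 2. Enrichment was measured by Illumina sequencing of input and output libraries from one triplicate in vitro selection round, with frozen incubation at −7 °C, on PCR-built, transcribed mutant libraries of each subunit of a heterodimeric triplet polymerase ribozyme, retaining genotypes with ≥10 input reads and ≥1 read per output.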

Point of comparison: A6G G17C, “polymerase ribozyme fitness (log ratio)” value -4.39. Against it:
- A5U G48U — higher, -1.69
- A5U U9A G48U C49G C101A — higher, -1.73
- A5U U32C C124G G128U — higher, -0.425
- A6U U92A G117U — lower, -5.86
- U7A A18U U59C — higher, -2.69
- U7A C8G A43C C53A G77A — higher, -2.07
- A6U C40G A50U — higher, -1.66
- A6G G36U C80U C88U G110C C124U — lower, -5.65
- U7A C40A G71U C89G A103C C124U — lower, -6.17
- U7A A29U C72U U106A — higher, -1.06
- A6U A46G C53G G117U — higher, -2.98
- A6U A50G C97U C115U — higher, -2.3
- U7A G17U A74U G117A A118G — within 0.2 log units, -4.25
- A6U C49G G122A — higher, -0.638
- U7A A24C C40G G93U U112A C123U — lower, -5.82
- A6U U9C — higher, 0.514
- A6C U9C A46C C62U C82U — higher, -0.79
- A6U G52C C56U C80G A121G — higher, -1.97
- A6U A41C C79G G113C U133A — within 0.2 log units, -4.49
- A6C G69U U78C — higher, 0.0885
- A6U U30C G60A G122A — lower, -5.6
- A6G U87G A121C — higher, 1.92
- A6C A18U G47U U125G — higher, -3.87
- A6C G17C U87C — higher, -3.71
- U7A C20A A26G C82U U125A — higher, -3.24
- U7A A18U G71A A119U G122U G135U — lower, -5.8
- A6U U54C — higher, 0.558
- A6U C12A U78A C80U C86A G120A — higher, -3.45
- A6G C11G C70G A118U — higher, -1.53
- U7A C72A G93C — higher, -0.463
- U7A G48C A74U G113A U130C U133G — higher, -1.3
- A5U G17A C49A G60A C89U — lower, -5.58
- A5U G71C — higher, -2.73
- U7A C11A A26U G63A U112A G127U — higher, -3.63
- U7A C12G A18C G45A G48A C49A A74G C85U — lower, -5.35
- A6C A41G C70U G117U — lower, -7.14
- U7A A41U C72A C85U — higher, -0.761
- A6C C8A G60A U87A — higher, -0.0712
- A6U G10C G61A C89A U125A — higher, -2.03
- U7A G69U C88G G122A — higher, -1.88
- A6C C72G U87A U112A G113U G117C U130G — lower, -5.39
- A6U C40U — higher, 0.421
- A6U C11U A46C G51C G57U A121C — higher, -2.71
- A6G C11G A118U — higher, 0.0523
- A6U U9C G60C — higher, -0.604
- A5U G48U C56U G93A — higher, -0.937
- A6U C62A A105C — higher, -4
- A6C U30G G61U A84C U112A — higher, -3.92
- A6U A43U U96A G122A — higher, -2.28
- A6U G57A — higher, -0.751
- U7A C15A A41C C70U — higher, -2.92
- U7A C8A C11G G47U G57U C62U C85A — higher, -1.82
- A6G C115A — higher, 0.525
- U7A C53U C86U A90G G122A — higher, -1.97
- A6U U9G A27U C34A G44U C64U — lower, -6.87
- A6U G44U C53U G77U G110A — higher, -3.2
- U7A A41G A66C — higher, -1.26
- A6G C15U C56U G69U U112A G117A — higher, -1.54
- U7A C56A A121G — higher, 1.68
- U7A C72U G77C G93C G113A G120A — higher, -2.99
- U7A C73A C82G — higher, -0.0183
- A6U A27U A121G U130A — higher, -0.823
- A5U G47C C62U G113C A118U — lower, -4.96
- A6G G69A — higher, -2.86
- A6U C62U U112G C115A U131C G135C — higher, -1.02
- A6C G48U U87C G110U — higher, -2
- A6C C11G C40U C123U — higher, 0.00495
- A6U U106A U116A — higher, -2.08
- A6U C34A — higher, -1.85
- A6U G48A — higher, -0.413
- A6U C72A A84U U132C — higher, -0.139
- A6U G10U C15G C28A A100C C123U — lower, -5.42
- A6C U30G G63A A91U A100G C104G U109G — lower, -5.44
- A5U G45U — higher, -1.13
- A5U G45A — higher, -1.11
- A6C G10A A37G G77A C79U C124A — higher, -0.0414
- A6C A50U C76G U96G — higher, -2.15
- A6G C72G C88U — higher, -0.419
- A6U C13A C40U C62A A95U — higher, -3.6
- A5U G69U A91C G113A U116C U130C — lower, -5.42
- A6C C40G C56G — higher, -2.36
- A6U C73U — higher, 0.309
- A6U C73A — higher, 0.0629
- A6G C40U G51U — higher, -4.1
- A5U G10A G17C — higher, -4.03
- A6C G93A — higher, -1.25
- A6C G52C — higher, -0.394
- U7A C31U G60A — lower, -4.77
- A6U C56U — higher, 0.177
- A5U G25U C53U G69C C94U — lower, -7.17
- A5U G51U G77U — within 0.2 log units, -4.52
- U7A C8G A16C A46U C70A — higher, -3.78
- A6U C28G G45U C56G C64A G120C — lower, -7.29
- A6C C13G G17A A18G — lower, -4.66
- A5U U33C — higher, -3.68
- A6U C13U G39C — higher, -0.104
- A6C C104A — higher, -1.61
- A6U G19U — higher, -2.29
- A6C C13A G48C C49G — higher, -3.01
- A6C A27G C49U C79A U81A — lower, -6.28
- U7A C22U G39A G44U C53U C56G G63A A68U C124A U125A — lower, -6.98
- A6U C64U U92G — higher, -3.05
- A5U G45C G60A — higher, -0.71
- A6U A37G G71A — higher, -0.537
- A6U C40U A84G C89U G113U G122C — lower, -5.19
- A6G U112A — higher, 1.64
- A6U C53G C99U — higher, -4.03
- A5U U81A A90C U92C — higher, -3.49
- A6U C12U G110U U130C — higher, -0.715
- A6U C123G — higher, 1.29
- A6G A46U — higher, -1.37
- A5U G57A — higher, -0.568
- A6U A121C — higher, 1.91
- U7A C53U — higher, -0.0186
- U7A G44A A68G — lower, -5.14
- A5U U96A — higher, -0.893
- A6U G10U C53U G122C C123A U125A — higher, -0.333
- A6G C80U C115G — higher, -1.33
- A6G C62U C73U U112G — higher, 0.725
- A6C G45A — higher, -2.73
- A5U G52C G61C U129A — higher, -2.2
- A6U C11U U14G A46C — higher, -4.04
- A6U A74G — higher, -0.0819
- U7A G52A G69C — higher, -2.28
- U7A A50U G77A — higher, -1
- A6G G10U C56A G57A G58A G69U C86U — higher, -1.09
- A5U U92C — higher, -1.56
- A6U A46G C70U U133A — higher, -1.52
- U7A C62G C86U — higher, -1.24
- A6C A46U C56U — higher, -1.22
- A6U G120A — higher, 0.678
- A6C A43G U78G A91G — higher, -2.53
- A6C G19A A41C C70A — within 0.2 log units, -4.25
- A5U G63U A75U — higher, -0.67
- U7A A41G U92A — higher, -1.89
- A6U U38A G63C C79U A84G C89U — higher, -3.61
- A5U G51A — higher, -3.23
- A6G C8A U55A C62A — higher, -0.384
- A6G C11A C34A G47A A111C — lower, -5.04
- U7A G113U — higher, -2.15
- A6U C13G A26U A43U C76A C115G — lower, -7.08
- A6U G69A C115U G120C — lower, -5.82
- A6U C22A C40A G61U — lower, -5.59
- A6G G45C G63C U81C — higher, -1.8
- A6G G42C G52U — higher, -2.37
- A6C A50C G127A G128U — higher, -3.5
- U7A U32C U55C G60C U129A — higher, -1.82
- A6U C72U U96C — higher, -0.187
- A6U C49A C62U — higher, -1.33
- U7A C11A C40U G93C A119U G122U — higher, 0.441
- A6C C70U — higher, -0.65
- A6C C70G — higher, -2.95
- U7A C15A C62U C64U G93U — higher, -1.99
- U7A C49U C53U U59A C76A — higher, -0.656
- A6C C94U U106A G113C U126C U133G — higher, -4.12
- A6G A74U C76U C115A — higher, -0.102
- A6U C86U C88A A121U — higher, 0.522
- A6U A27U U81A — higher, -3.93
- A6U G60A C97G A111G U125A G135A — lower, -6.23
- A6U C22U C64U C124U — higher, -4.12
- A6U U87C U96G G120A G122C — higher, 0.592
- A6U A90U C98G C102U A108U C123G — lower, -6.7
- A6G C11G G52U U59A G60C — higher, -0.455
- U7A C79G C88G U112A — higher, -1.87
- A6U U54A C62U — higher, 0.317
- A6U C11G G48U C56U C64U A83C — lower, -4.78

Reference: the RNAGym collection of RNA variant scans (doi:10.1073/pnas.2313332121)
